In patent US20210047372A1 (Affibody, published 2021):
Residue numbers refer to the chain shown, from its start. Numbers in names are those of the source.

B1: Y00032 (designed binder)
chain: MGSSHHHHHHGSSLAEAKEAAIAELDSKGVGAYQKSFIELAKSVEHVELLKEAILADLP
B2: Y00293 (designed binder)
chain: B1 chain with K35I, S36K, E48Q, E52Q
notes: Y00270 with E35Q + E39Q; also called Y000293
B3: Y00294 (designed binder)
chain: B1 chain with K35I, S36K, E48Q, A56K
notes: Y00270 with E35Q + A43K
B4: Y00270 (designed binder)
chain: B1 chain with K35I, S36K
notes: Y00032 with K22I + S23K
B5: Y00292 (designed binder)
chain: B1 chain with S36K, E48Q, E52Q
notes: Y00032 with S23K + E35Q + E39Q
B6: Y00295 (designed binder)
chain: B1 chain with K35I, S36K, E48Q, E52Q, A56K
notes: Y00270 with E35Q + E39Q + A43K
B7: Y02358 (designed binder)
chain: MGSSHHHHHHGSSLAEAKEAAIAELDSKGVGADDIKLIQDAPSVEGVQEIKQFILAQLPA
notes: From library Ylib002Naive.I
B8: Y02303 (designed binder)
chain: MGSSHHHHHHGSSLAEAKEAAIAELDSKGVGAEEIKWIQNAWSVEGVQIMKQQILAELPA
notes: From library Ylib002Naive.I
B9: Y02337 (designed binder)
chain: B8 chain with E33A, N40H, W42S, S43T, I49G, M50R
notes: From library Ylib002Naive.I
B10: Y02309 (designed binder)
chain: MGSSHHHHHHGSSLAEAKEAAIAELDSKGVGADLIKKIQKAESVEGVQFWKQEILATLPA
notes: From library Ylib002Naive.I
B11: Y02330 (designed binder)
chain: B10 chain with D33E, K40H, T57Y
notes: From library Ylib002Naive.I
B12: Y00792 (designed binder)
chain: B10 chain with K40Q, E42S, T57Q
notes: From library Ylib002Naive.I
B13: Y02701 (designed binder)
chain: MGSSHHHHHHGSSLAEAKEAAIAELDSYGVGAGDIKDIQDALLVEIVQLLKQAILAVLPA
notes: Y02415 with K15Y
B14: Y02703 (designed binder)
chain: B13 chain with G33V, D34E, D37Q, Q39E, D40E
notes: Y02444 with K15Y + Q26E
B15: Y02702 (designed binder)
chain: B13 chain with Y28K, Q39E
notes: Y02415 with Q26E

target: T1, insulin (UniProt P01308 25-54; P01308 90-110, limits assumed); assay: SPR, Biacore T200; target immobilized on CM5, His6-tagged Y variant injected; 1:1 Langmuir
T1 construct: Mature insulin has two chains (A and B) from one precursor; also called b-insulin
T1 sequence (P01308 25-54 limits assumed, form in doubt, chain 1 of 2): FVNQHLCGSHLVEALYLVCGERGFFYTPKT
T1 sequence (P01308 90-110 limits assumed, form in doubt, chain 2 of 2): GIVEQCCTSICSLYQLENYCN
Description: (§1) Kinetic constants (kₐ and kd) and affinities (KD) were determined for Hiss-tagged Y variants using a Biacore T200 instrument (GE Healthcare). Target proteins C4, IL-6 and insulin, respectively, were immobilized in separate flow cells on the carboxylated dextran layer of different CM5 chip surfaces (GE Healthcare).
(§2) Immobilization was performed using amine coupling chemistry according to the manufacturer's protocol and PBS pH 7.4 supplemented with 0.1 Tween20 (PBST 0.1%) as running buffer. The ligand immobilization levels on the surfaces were 3280-8830 RU for C4, 495-1184 RU for IL-6, and 270-282 RU for insulin. One flow cell surface on each chip was activated and deactivated for use as blank during analyte injections. In the kinetic experiment, PBST 0.1% was used as running buffer at a flow rate of 30 μl/min. The analytes, i.e. Y variants, were each diluted in PBST 0.1 buffer at concentrations of 1000, 500, 100, 50 and 10 nM and injected for 5 min, followed by dissociation in running buffer for 3 min. After dissociation, the surfaces were regenerated with one injection of 30 μl 10 mM HCl. Kinetic constants were calculated from the sensorgrams using the Langmuir 1:1 model of Biacore T200 Evaluation software 2.0 (GE Healthcare).

Binder | Kd
B1 | 63 nM
B2 | 490 nM
B3 | 490 nM
B4 | 77 nM
B5 | 450 nM
B6 | 580 nM

target: T2, complement component 4 (C4) (UniProt P0C0L4 20-675; P0C0L4 680-1446; P0C0L4 1454-1744, limits assumed); assay: as above
T2 construct: Natural C4 is a three-chain protein (alpha, beta, gamma) made from one precursor; Biotinylated for ELISA, amine-coupled to the chip for SPR; also called b-C4
T2 sequence (P0C0L4 20-675 limits assumed, chain 1 of 3): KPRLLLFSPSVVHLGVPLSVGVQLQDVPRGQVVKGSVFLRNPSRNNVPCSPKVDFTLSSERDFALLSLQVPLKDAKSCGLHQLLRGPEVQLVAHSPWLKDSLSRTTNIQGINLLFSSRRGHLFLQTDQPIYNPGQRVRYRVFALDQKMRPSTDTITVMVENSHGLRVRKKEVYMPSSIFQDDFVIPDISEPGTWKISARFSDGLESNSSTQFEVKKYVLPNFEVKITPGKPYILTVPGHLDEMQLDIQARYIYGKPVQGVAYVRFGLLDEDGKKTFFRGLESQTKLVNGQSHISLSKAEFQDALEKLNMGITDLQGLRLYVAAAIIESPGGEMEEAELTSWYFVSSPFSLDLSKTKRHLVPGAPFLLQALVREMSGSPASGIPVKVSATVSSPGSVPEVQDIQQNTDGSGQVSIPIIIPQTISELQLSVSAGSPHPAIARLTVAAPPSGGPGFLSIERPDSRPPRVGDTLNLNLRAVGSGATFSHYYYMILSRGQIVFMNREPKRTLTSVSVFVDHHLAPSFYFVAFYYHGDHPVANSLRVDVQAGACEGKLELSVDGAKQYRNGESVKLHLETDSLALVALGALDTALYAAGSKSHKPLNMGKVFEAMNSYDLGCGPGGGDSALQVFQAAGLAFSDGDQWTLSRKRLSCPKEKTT
T2 sequence (P0C0L4 680-1446 limits assumed, chain 2 of 3): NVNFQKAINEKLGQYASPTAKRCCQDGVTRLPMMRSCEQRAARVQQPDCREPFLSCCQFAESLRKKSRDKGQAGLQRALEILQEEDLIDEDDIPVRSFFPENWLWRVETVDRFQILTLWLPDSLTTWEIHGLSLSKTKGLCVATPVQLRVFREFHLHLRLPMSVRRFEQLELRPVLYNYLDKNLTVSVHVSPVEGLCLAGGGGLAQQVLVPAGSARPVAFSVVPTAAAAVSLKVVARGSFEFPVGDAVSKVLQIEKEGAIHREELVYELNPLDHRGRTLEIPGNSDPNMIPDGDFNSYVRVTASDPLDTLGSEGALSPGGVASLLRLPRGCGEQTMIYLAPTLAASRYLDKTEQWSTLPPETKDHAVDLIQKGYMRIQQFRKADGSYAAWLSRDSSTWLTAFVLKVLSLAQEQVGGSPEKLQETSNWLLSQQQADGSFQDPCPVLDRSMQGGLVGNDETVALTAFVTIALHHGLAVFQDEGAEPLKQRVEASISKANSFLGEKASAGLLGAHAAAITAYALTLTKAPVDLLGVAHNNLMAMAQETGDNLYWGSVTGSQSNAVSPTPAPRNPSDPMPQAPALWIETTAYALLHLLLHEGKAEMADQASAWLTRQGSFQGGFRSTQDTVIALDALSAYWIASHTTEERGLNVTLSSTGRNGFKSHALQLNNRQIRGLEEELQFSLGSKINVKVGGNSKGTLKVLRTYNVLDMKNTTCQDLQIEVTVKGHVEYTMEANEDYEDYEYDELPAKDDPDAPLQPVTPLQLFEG
T2 sequence (P0C0L4 1454-1744 limits assumed, chain 3 of 3): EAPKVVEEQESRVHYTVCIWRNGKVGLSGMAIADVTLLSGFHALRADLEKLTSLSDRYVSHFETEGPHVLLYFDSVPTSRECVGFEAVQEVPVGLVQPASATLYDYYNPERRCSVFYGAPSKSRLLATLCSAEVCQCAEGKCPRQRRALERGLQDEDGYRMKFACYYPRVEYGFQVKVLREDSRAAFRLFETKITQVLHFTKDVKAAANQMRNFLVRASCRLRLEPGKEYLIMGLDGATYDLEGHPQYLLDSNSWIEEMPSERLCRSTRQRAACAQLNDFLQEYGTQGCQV
Description: as §1, §2

Binder | Kd | koff | kon
B7 | 16 nM | 0.0014 s⁻¹ | 90000 M⁻¹ s⁻¹
B8 | 2200 nM | 0.21 s⁻¹ | 96000 M⁻¹ s⁻¹
B9 | 1900 nM | 0.81 s⁻¹ | 420000 M⁻¹ s⁻¹
B10 | 70 nM | 0.0025 s⁻¹ | 36000 M⁻¹ s⁻¹
B11 | 48 nM | 0.0046 s⁻¹ | 96000 M⁻¹ s⁻¹
B12 | 62 nM | 0.0017 s⁻¹ | 27000 M⁻¹ s⁻¹

target: T3, interleukin 6 (IL-6) (UniProt P05231 30-212); assay: as above
T3 construct: also called b-IL-6
Description: as §1, §2

Binder | Kd | koff | kon
B13 | 210 nM | 0.0036 s⁻¹ | 21000 M⁻¹ s⁻¹
B14 | 120 nM | 0.0025 s⁻¹ | 21000 M⁻¹ s⁻¹
B15 | 440 nM | 0.007 s⁻¹ | 16000 M⁻¹ s⁻¹

target: T1, insulin; assay: as above; remark: another data set of the same source
Description: as §1, §2

Binder | Kd
B1 | 63 nM
B4 | 77 nM
